Reference: patent US5935840A, “Activated recombinant adenovirus proteinases” (priority 1995, dated 1999)
Entries after “also recorded” stand apart in the source; their conditions may differ.

Key:
[1] = system: (Leu-Arg-Gly-Gly-NH)2 -rhodamine; assay: Fluorescence assay of proteinase activity of virus and recombinant proteinase preparations; assay type: biochemical
Excerpt: The nature of the proteinase cofactor(s) was pursued with the aid of the second assay, which utilizes the substrate (Leu-Arg-Gly-Gly-NH)2 -rhodamine. The design of this substrate was based on two facts. (1) It was known that the proteinase present in disrupted Ad2 virions would cleave small peptides with sequence similar to that found at natural cleavage sites in adenovirus virion precursors (Webster et al., 1989). (2) Cleavage of either tetra-peptide sequence from the substituted rhodamine substrate produces a very large increase, up to a 3500-fold, in fluorescence. Under conditions where only a small fraction of the rhodamine substrate is cleaved, the increase in fluorescence is proportional to the amount of proteinase present and to the time of incubation. Thus, the fluorescence assay provides a quantitative method for assessing proteinase activity that is more sensitive convenient and rapid than the gel electrophoresis assay.
Assays were performed in 400 μl of Assay Buffer (50 mM Tris-HCl, pH 7.4, 25 mM NaCl, 10 mM octylglucoside, and 1 mM dithiothreitol). […] When present, the number of disrupted virus particles was 10^10 and the amount of recombinant proteinase was 0.12 mAU280 nm. […] After 30 minutes at 37° C., a 360 μl aliquot of the reaction was added to 340 μl of Assay Buffer minus octylglucoside, and the increase in fluorescence was measured. The excitation wavelength was 492 nm and the emission wavelength was 523 nm, both with a bandwidth of 5 nm. The change in fluorescence, ΔF, is the magnitude of the fluorescence from the sample minus the magnitude of the fluorescence from an identical solution without enzyme.
Disrupted virus was obtained as follows: Twice CsCl-banded virus was dialyzed against 10 mM Tris-HCl, pH 8.0, 1mM EDTA and centrifuged at 100,000×g for 1 hour. The pellet was suspended in 10 mM Tris-HCl, pH 6.8, containing 20% (v/v) glycerol and, after three 10 second bursts of sonication, was stored at -20° C. The fluorogenic substrate was synthesized and purified at BNL by Dr. Walter Mangel, using methods similar to those previously described by Dr. Mangel. These methods are described in two U.S. Patents (U.S. Pat. No. 4,557,862 entitled "Rhodamine derivatives as fluorogenic substrates for proteinases" by Mangel, W. F., Leytus, S., and L. Helhado; issued Dec. 10, 1985; U.S. patent application Ser. No. 780,552; "Novel rhodamine derivatives as fluorogenic substrates" by Mangel, W. F., Leytus, S., and L. Helhado; filing date Sep. 24, 1985) and in other publications by Mangel and co-workers.

HEP1DBP = assay: Cleavage of artificial protein substrate HEP1DBP (SDS-polyacrylamide gel electrophoresis); assay type: biochemical; settings: incubated with HEP1DBP alone, no added cofactors
Excerpt: Recombinant protein substrates that resemble natural virion precursors, such as pVI, can be produced in E. coli by genetic engineering methods similar to those used for expression of recombinant adenovirus proteinase. The recombinant substrate may have an artificial leader sequence that can be removed by proteinase-mediated cleavage. The leader can be designed to aid in purification of the substrate; thus the recombinant substrate can be produced and purified much more efficiently than natural adenovirus substrates. Recombinant protein substrates also serve as prototypes of potential commercial products, showing that the adenovirus proteinase will remove an artificial leader sequence from a recombinant protein that is not related to any adenovirus protein. The first artificial protein substrate was called HEP1DBP. It consists of a 17 amino acid leader (Met-Ala-Ser-Met-Thr-Gly-His-His-His-His-His-His-Gly-Met-Ser-Gly-Gly-) (SEQ ID NO: 37) attached to the initiating methionine of the 232 amino acid DNA binding protein (DBP), of bacteriophage T7. The T7 DBP is the product of gene 2.5. The recombinant proteinase substrate is produced by induction of a pET expression plasmid called pT7HEP1DBP (also called pT7HIS2) (FIG. 7A and Example 11); the predicted sequence of the expressed substrate is given in Table 1. The leader sequence contains six consecutive histidine residues to permit purification by metal affinity chromatography in a manner analogous to purification of the adenovirus proteinase. Immediately preceding the methionine corresponding to the initiation site of the T7 DBP is the tetra-amino acid element -Met-Ser-Gly-Gly- (SEQ ID NO: 38). This segment corresponds to the proteinase recognition sequence in the adenovirus virion precursor polypeptide pVI. The size of the leader sequence was chosen so that the substrate precursor HEP1DBP, and the predicted major product after cleavage, the T7 DBP, could easily be distinguished by SDS-polyacrylamide gel electrophoresis.
When purified HEP1DBP was incubated with disrupted wild-type adenovirus 2 virions, it was cleaved, as determined from the change in its mobility during SDS-polyacrylamide gel electrophoresis. No cleavage was observed when incubation was with disrupted H2ts1 virions alone.
Plasmid pT7HEP1DBP (5346 bp) is a pET-3 derivative that expresses the […] T7 gene 2.5 protein (a single-stranded DNA binding protein) attached to a 17-amino acid leader sequence (FIG. 19). The 249-amino acid HEP1DBP polypeptide serves as an artificial substrate for the adenovirus EP; the leader peptide, MASMTGHHHHHHGMSGG- (SEQ ID NO: 37), ends with the Ad2 proteinase recognition sequence -MSGG- (SEQ ID NO: 38) [Anderson, C. […]

[2] = system: Ad2 major core protein precursor, pVII; assay: Assay of adenovirus proteinase activity in crude extracts: cleavage of [35S]-methionine-labeled pVII (SDS-PAGE, autoradiography); assay type: biochemical, adenovirus type 2
Experimental: The expression products of the above-described Ad2 and Ad12 proteinase plasmids were tested for their ability to cleave the Ad2 major core protein precursor, pVII, in crude extracts from adenovirus-infected cells. The extracts were obtained from human cells infected with the temperature-sensitive mutant Ad2 strain, H2ts1, which has a defective proteinase. As described below, adenovirus proteinase activity requires the presence of two cofactors. […] The recombinant proteinases were also characterized by peptide sequence analysis of their amino-termini.
Bacterial extracts were incubated with the radiolabeled substrate (pVII). Samples were removed at different times and analyzed by SDS-PAGE and autoradiography. […] Appearance of the processed VII band and concurrent decrease of the precursor pVII band indicates proteinase activity. Radiolabeled proteins of Ad2 virions were run on the gel to indicate the positions of pVII, VII, and other virion components (lane a). Extracts from Ad2 -infected HeLa cells were assayed as a positive control for proteinase activity (lane b).
Adenovirus proteinase activity was monitored by the cleavage of [^35 S]-methionine-labeled major core precursor (pVII) essentially as described (Bhatti and Weber, Biochem. Biophys. Res. Comm. 81: 973-797, (1978)). The proteinase substrate was prepared from Ad2Ad2tsl-infected HeLa cells grown at 39° C. and labeled with [^35 S]-methionine (200 μCi/plate) from approximately 28 to 30 hours after infection. Labeled cultures were harvested, washed twice in Phosphate Buffered Saline (PBS), resuspended in 1.0 ml of 10 mM sodium phosphate buffer, pH 7.4, per plate, and sonicated for 40 seconds using a water-cooled sonicator horn (Branson Sonic Power Co., Danbury, Conn.). The extract was then centrifuged at 12,000×g for 10 minutes, and the pellet was resuspended in 10 mM phosphate buffer.
Extracts of Ad-infected cells, harvested 40 hours after infection at 37° C. were used as a source of viral proteinase. Harvested cultures were washed twice with PBS, resuspended in 10 mM phosphate buffer, frozen and thawed once, and centrifuged at 12,000×g for 10 minutes. Pellets were resuspended in 1.0 ml phosphate buffer, pH 7.4, per 10^6 infected cells and sonicated 4×10 seconds; samples were stored at -70° C. Bacterial extracts were prepared by lysozyme-EDTAtreatment of cultures harvested 2 hours after IPTG induction.
Assays were performed by mixing equal volumes of [^35 S]-labeled substrate and test extract and incubating at 37° C. At different times, 25 μl samples were removed, mixed with 25 μl of SDS Sample Buffer, heated to 90° C., and analyzed by SDS-polyacrylamide gel electrophoresis and autoradiography as described (Anderson et al., J. Virol. 12: 241-252 (1973).
Recombinant proteinase polypeptides were assayed for proteinase activity by incubating whole-cell extracts of BL21 (DE3), pT7AD23K5/BL21(DE3), and pT7AD23k6/BL21(DE3), prepared as described above, with extracts of [^35 S]-methionine-labeled Ad2 virion precursor polypeptides. Incubation of the labeled extract at 37° C. for up to 20 hours, alone or with an extract prepared from uninfected HeLa cells, produced little change in the pattern of labeled polypeptides.

[3] = Solubility of bacterially expressed proteinases (10,000×g supernatant/pellet of lysed E. coli); assay type: physicochemical
Experimental: The 23k5 and 23k6 products were tested for solubility as an indication of protein folding. Induced bacteria were harvested and lysed with lysozyme-EDTA, and 10,000×g supernatants were prepared.
The expressed proteinase polypeptides were then tested for solubility. Induced bacteria were harvested and lysed with lysozyme-EDTA, and 10,000×g supernatants were prepared. In each case, the majority of the proteinase polypeptide was found in the 10,000×g pellet. When pellet fractions were analyzed by SDS-polyacrylamide gel electrophoresis in the absence of a reducing agent, only a small fraction of the proteinase polypeptides entered the stacking gel, showing that most of the bacterially synthesized proteinase was misfolded and crosslinked through disulfide bonds. This finding was true for both pT7AD23K5 products (23k5a and 23k5b) as well as for the 23k6 polypeptide.

Substance: rEP protein: purified recombinant Ad2 proteinase, an activatable proteinase
- Rate of substrate hydrolysis by the rEP protein alone ([1]; 8.3 nM rEP protein, 1 μM substrate, no cofactors): less than 0.014 pmol substrate min^-1
- Proteinase activity in fluorescence assay ([1]; complemented with disrupted H2ts1 virus): Activity was obtained
- Proteinase activity in fluorescence assay ([1]; preparation alone): no activity

Substance: 23K6: recombinant wild-type 204/203 amino acid Ad2 proteinase expressed from pT7AD23k6 in E. coli
- Cleavage of HEP1DBP (HEP1DBP): no cleavage
- Stability of processing activity in the bacterial extracts ([2]; 37° C.): about 2 hours
- Activity/Conditions ([2]; Induced, log phase): Active
- Time by which virtually all of pVII had been converted to VII ([2]; bacterial extract, 37° C.): ≤ 2 hours
- Proteinase activity (cleavage of pVII) ([2]; extracts of IPTG-induced, log phase cells): significant proteinase activity; also recorded: active
- Part of recombinant proteinase that folds into a soluble protein ([3]; incubation temperature lowered to 30° at addition of IPTG): approximately half
- Solubility of expressed proteinase ([3]; induced bacteria lysed with lysozyme-EDTA, 10,000×g): majority of the proteinase was found in the insoluble pellet
